The values below come from PMC5534435, “The Amyloid Precursor Protein Is a Conserved Receptor for Slit to Mediate Axon Guidance” (eNeuro, 2017).

For this assay, the target named is T1, Rat Robo1 tagged with the hemagglutinin (Robo1-HA) (rat, UniProt O55005 26-1651).
T1 construct: Roundabout homolog 1 (Robo1), rat; The sentence with the Kd calls it Robo2, the methods name only rat Robo1-HA; also called Robo-HA; HA-Robo; source: HEK293, transfected
In words: binding of alkaline phosphatase-tagged ligand to transfected cells; HEK293 cells transfected with FL APP or HA-Robo incubated with serial dilutions of supernatants with AP-tagged Slit2 and 1 μg/ml heparin, 2 h at 37°C; AP activity in cell lysates; Hill equation, Scatchard plot. The following applies: partners not purified.

T1 sequence (O55005 26-1651): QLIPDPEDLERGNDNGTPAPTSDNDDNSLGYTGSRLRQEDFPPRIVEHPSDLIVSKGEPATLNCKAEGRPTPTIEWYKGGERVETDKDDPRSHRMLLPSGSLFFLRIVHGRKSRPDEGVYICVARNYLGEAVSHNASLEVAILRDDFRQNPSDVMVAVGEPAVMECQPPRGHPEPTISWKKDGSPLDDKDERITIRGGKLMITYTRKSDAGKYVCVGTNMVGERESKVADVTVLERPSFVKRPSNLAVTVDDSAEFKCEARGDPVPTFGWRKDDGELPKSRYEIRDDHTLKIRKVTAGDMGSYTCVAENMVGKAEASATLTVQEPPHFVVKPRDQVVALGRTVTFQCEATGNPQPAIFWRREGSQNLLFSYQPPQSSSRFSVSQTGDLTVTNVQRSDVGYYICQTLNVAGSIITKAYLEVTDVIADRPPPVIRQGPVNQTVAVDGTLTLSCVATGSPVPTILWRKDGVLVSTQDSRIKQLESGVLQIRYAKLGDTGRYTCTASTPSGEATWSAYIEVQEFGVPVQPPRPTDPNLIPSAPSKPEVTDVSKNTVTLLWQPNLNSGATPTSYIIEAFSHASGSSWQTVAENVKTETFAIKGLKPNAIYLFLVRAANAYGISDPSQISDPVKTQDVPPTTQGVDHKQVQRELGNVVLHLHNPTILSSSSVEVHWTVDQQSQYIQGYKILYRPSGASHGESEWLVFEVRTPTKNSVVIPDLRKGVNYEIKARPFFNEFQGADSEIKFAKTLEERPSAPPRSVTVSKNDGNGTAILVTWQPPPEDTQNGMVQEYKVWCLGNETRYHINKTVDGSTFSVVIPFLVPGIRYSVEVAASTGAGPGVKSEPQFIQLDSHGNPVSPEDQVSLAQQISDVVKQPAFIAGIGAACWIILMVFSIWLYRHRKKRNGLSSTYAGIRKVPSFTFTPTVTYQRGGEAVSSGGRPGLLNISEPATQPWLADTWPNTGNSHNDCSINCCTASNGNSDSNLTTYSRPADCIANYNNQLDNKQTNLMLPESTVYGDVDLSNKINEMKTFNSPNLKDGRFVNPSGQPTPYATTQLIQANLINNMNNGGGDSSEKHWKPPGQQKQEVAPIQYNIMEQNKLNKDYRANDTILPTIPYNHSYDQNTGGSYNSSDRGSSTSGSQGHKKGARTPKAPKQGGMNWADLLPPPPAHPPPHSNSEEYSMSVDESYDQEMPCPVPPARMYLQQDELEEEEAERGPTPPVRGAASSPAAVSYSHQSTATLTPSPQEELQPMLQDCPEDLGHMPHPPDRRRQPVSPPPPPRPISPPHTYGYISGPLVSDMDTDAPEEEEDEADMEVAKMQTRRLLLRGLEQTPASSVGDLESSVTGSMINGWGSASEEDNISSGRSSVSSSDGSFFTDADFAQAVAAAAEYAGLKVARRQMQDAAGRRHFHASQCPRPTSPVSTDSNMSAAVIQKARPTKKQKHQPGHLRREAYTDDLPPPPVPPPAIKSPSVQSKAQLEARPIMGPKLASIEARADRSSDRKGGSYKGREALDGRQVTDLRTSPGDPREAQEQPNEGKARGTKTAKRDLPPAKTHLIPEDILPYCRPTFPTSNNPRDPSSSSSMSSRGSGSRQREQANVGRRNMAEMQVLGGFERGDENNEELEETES

B1: FL Slit2 fused N terminally to the human alkaline phosphatase sequence (ligand, UniProt O94813 31-1529, looked up)
chain: QCSCSGSTVDCHGLALRSVPRNIPRNTERLDLNGNNITRITKTDFAGLRHLRVLQLMENKISTIERGAFQDLKELERLRLNRNHLQLFPELLFLGTAKLYRLDLSENQIQAIPRKAFRGAVDIKNLQLDYNQISCIEDGAFRALRDLEVLTLNNNNITRLSVASFNHMPKLRTFRLHSNNLYCDCHLAWLSDWLRQRPRVGLYTQCMGPSHLRGHNVAEVQKREFVCSGHQSFMAPSCSVLHCPAACTCSNNIVDCRGKGLTEIPTNLPETITEIRLEQNTIKVIPPGAFSPYKKLRRIDLSNNQISELAPDAFQGLRSLNSLVLYGNKITELPKSLFEGLFSLQLLLLNANKINCLRVDAFQDLHNLNLLSLYDNKLQTIAKGTFSPLRAIQTMHLAQNPFICDCHLKWLADYLHTNPIETSGARCTSPRRLANKRIGQIKSKKFRCSAKEQYFIPGTEDYRSKLSGDCFADLACPEKCRCEGTTVDCSNQKLNKIPEHIPQYTAELRLNNNEFTVLEATGIFKKLPQLRKINFSNNKITDIEEGAFEGASGVNEILLTSNRLENVQHKMFKGLESLKTLMLRSNRITCVGNDSFIGLSSVRLLSLYDNQITTVAPGAFDTLHSLSTLNLLANPFNCNCYLAWLGEWLRKKRIVTGNPRCQKPYFLKEIPIQDVAIQDFTCDDGNDDNSCSPLSRCPTECTCLDTVVRCSNKGLKVLPKGIPRDVTELYLDGNQFTLVPKELSNYKHLTLIDLSNNRISTLSNQSFSNMTQLLTLILSYNRLRCIPPRTFDGLKSLRLLSLHGNDISVVPEGAFNDLSALSHLAIGANPLYCDCNMQWLSDWVKSEYKEPGIARCAGPGEMADKLLLTTPSKKFTCQGPVDVNILAKCNPCLSNPCKNDGTCNSDPVDFYRCTCPYGFKGQDCDVPIHACISNPCKHGGTCHLKEGEEDGFWCICADGFEGENCEVNVDDCEDNDCENNSTCVDGINNYTCLCPPEYTGELCEEKLDFCAQDLNPCQHDSKCILTPKGFKCDCTPGYVGEHCDIDFDDCQDNKCKNGAHCTDAVNGYTCICPEGYSGLFCEFSPPMVLPRTSPCDNFDCQNGAQCIVRINEPICQCLPGYQGEKCEKLVSVNFINKESYLQIPSAKVRPQTNITLQIATDEDSGILLYKGDKDHIAVELYRGRVRASYDTGSHPASAIYSVETINDGNFHIVELLALDQSLSLSVDGGNPKIITNLSKQSTLNFDSPLYVGGMPGKSNVASLRQAPGQNGTSFHGCIRNLYINSELQDFQKVPMQTGILPGCEPCHKKVCAHGTCQPSSQAGFTCECQEGWMGPLCDQRTNDPCLGNKCVHGTCLPINAFSYSCKCLEGHGGVLCDEEEDLFNPCQAIKCKHGKCRLSGLGQPYCECSSGYTGDSCDREISCRGERIRDYYQKQQGYAACQTTKKVSRLECRGGCAGGQCCGPLRSKRRKYSFECTDGSSFVDEVEKVVKCGCTRCVS
notes: Slit2, full length, put in place of Netrin 5 in the vector Ntn5.a-AP-His (Addgene); also called AP-tagged Slit2; alkaline phosphatase (AP)-tagged Slit2; source: HEK293T, transfected, in supernatant; not shown: alkaline phosphatase (human), C-terminal, kept
B1: the Kd is 19.6 nM.
